# Source: patent US20240199740A1 (Ablynx, published 2024)
# B1: T017000114 (bispecific antibody)
# chain: EVQLVESGGGLVQAGGPLRLSCAASGRTFSSYVMGWFRQAPGKEREFVAAIYWSNGKTQYTDSVKGRFTISGDNAKNTVYLQMNSLNPEDTAVYYCVADKDETGFRTLPIAYDYWGQGTLVTVSSGGGGSGGGGSGGGGSGGGGSGGGGSGGGGSGGGGSEVQLVESGGGLVQAGGSLRLSCAASGITSKINDMGWYRQTPGNYREWVASITATGTTNYRDSVKGRFTISRDNAKSTVYLQMNSLKPEDTTVYYCNTFPPISNFWGQGTLVTVSSGGGGSGGGGSGGGGSGGGGSGGGGSGGGGSGGGGSEVQLVESGGGLVQPGGSLRLSCVASGDVHKINFLGWYRQAPGKEREKVAHISIGDQTDYADSAKGRFTISRDESKNMVYLQMNSLKPEDTAVYFCRAFSRIYPYDYWGQGTLVTVSS
# notes: Multispecific Nanobody polypeptide expressed in Pichia; also called A0110055F03-35GS-A0110056A10-35GS-T0170056G05-FLAG3-HIS6; not shown: C-terminal FLAG3-HIS6 tag
# B2: T017000113 (bispecific antibody)
# chain: EVQLVESGGGLVQAGGPLRLSCAASGRTFSSYVMGWFRQAPGKEREFVAAIYWSNGKTQYTDSVKGRFTISGDNAKNTVYLQMNSLNPEDTAVYYCVADKDETGFRTLPIAYDYWGQGTLVTVSSGGGGSGGGGSGGGGSGGGGSGGGGSGGGGSGGGGSEVQLVESGGGSVQAGGSLRLSCAASGYTIGPYCMGWFRQAPGKEREGVAAINMGGGITYYADSVKGRFTISQDNAKNTVYLLMNSLEPEDTAIYYCAADSTIYASYYECGHGLSTGGYGYDSWGQGTLVTVSSGGGGSGGGGSGGGGSGGGGSGGGGSGGGGSGGGGSEVQLVESGGGLVQPGGSLRLSCVASGDVHKINFLGWYRQAPGKEREKVAHISIGDQTDYADSAKGRFTISRDESKNMVYLQMNSLKPEDTAVYFCRAFSRIYPYDYWGQGTLVTVSS
# notes: Multispecific Nanobody polypeptide expressed in Pichia; also called A0110055F03-35GS-cAbLys3(D1E,Q5V,A6E,Q108L)-35GS-T0170056G05-FLAG3-HIS6; not shown: C-terminal FLAG3-HIS6 tag
# B3: T017000128 (bispecific antibody)
# chain: DVQLVESGGGLVQPGGSLRLSCVASGDVHKINFLGWYRQAPGKEREKVAHISIGDQTDYADSAKGRFTISRDESKNMVYLQMNSLKPEDTAVYFCRAFSRIYPYDYWGQGTLVTVSSGGGGSGGGGSGGGGSGGGGSGGGGSGGGGSGGGGSEVQLVESGGGLVQAGGSLRLSCAASGITSKINDMGWYRQTPGNYREWVASITATGTTNYRDSVKGRFTISRDNAKSTVYLQMNSLKPEDTTVYYCNTFPPISNFWGQGTLVTVSSA
# B4: T017000120 (bispecific antibody)
# chain: EVQLVESGGGSVQAGGSLRLSCAASGYTIGPYCMGWFRQAPGKEREGVAAINMGGGITYYADSVKGRFTISQDNAKNTVYLLMNSLEPEDTAIYYCAADSTIYASYYECGHGLSTGGYGYDSWGQGTLVTVSSGGGGSGGGGSGGGGSGGGGSGGGGSGGGGSGGGGSEVQLVESGGGLVQAGGPLRLSCAASGRTFSSYVMGWFRQAPGKEREFVAAIYWSNGKTQYTDSVKGRFTISGDNAKNTVYLQMNSLNPEDTAVYYCVADKDETGFRTLPIAYDYWGQGTLVTVSSGGGGSGGGGSGGGGSGGGGSGGGGSGGGGSGGGGSEVQLVESGGGLVQPGGSLRLSCVASGDVHKINFLGWYRQAPGKEREKVAHISIGDQTDYADSAKGRFTISRDESKNMVYLQMNSLKPEDTAVYFCRAFSRIYPYDYWGQGTLVTVSS
# notes: Multispecific Nanobody polypeptide expressed in Pichia; also called cAbLys3(D1E,Q5V,A6E,Q108L)-35GS-A0110055F03-35GS-T0170056G05-FLAG3-HIS6; not shown: C-terminal FLAG3-HIS6 tag
# B5: T017000121 (bispecific antibody)
# chain: EVQLVESGGGSVQAGGSLRLSCAASGYTIGPYCMGWFRQAPGKEREGVAAINMGGGITYYADSVKGRFTISQDNAKNTVYLLMNSLEPEDTAIYYCAADSTIYASYYECGHGLSTGGYGYDSWGQGTLVTVSSGGGGSGGGGSGGGGSGGGGSGGGGSGGGGSGGGGSEVQLVESGGGLVQAGGSLRLSCAASGITSKINDMGWYRQTPGNYREWVASITATGTTNYRDSVKGRFTISRDNAKSTVYLQMNSLKPEDTTVYYCNTFPPISNFWGQGTLVTVSSGGGGSGGGGSGGGGSGGGGSGGGGSGGGGSGGGGSEVQLVESGGGLVQPGGSLRLSCVASGDVHKINFLGWYRQAPGKEREKVAHISIGDQTDYADSAKGRFTISRDESKNMVYLQMNSLKPEDTAVYFCRAFSRIYPYDYWGQGTLVTVSS
# notes: Multispecific Nanobody polypeptide expressed in Pichia; also called cAbLys3(D1E,Q5V,A6E,Q108L)-35GS-A0110056A10-35GS-T0170056G05-FLAG3-HIS6; not shown: C-terminal FLAG3-HIS6 tag
# B6: T017000115 (bispecific antibody)
# chain: EVQLVESGGGLVQAGGSLRLSCAASGITSKINDMGWYRQTPGNYREWVASITATGTTNYRDSVKGRFTISRDNAKSTVYLQMNSLKPEDTTVYYCNTFPPISNFWGQGTLVTVSSGGGGSGGGGSGGGGSGGGGSGGGGSGGGGSGGGGSEVQLVESGGGSVQAGGSLRLSCAASGYTIGPYCMGWFRQAPGKEREGVAAINMGGGITYYADSVKGRFTISQDNAKNTVYLLMNSLEPEDTAIYYCAADSTIYASYYECGHGLSTGGYGYDSWGQGTLVTVSSGGGGSGGGGSGGGGSGGGGSGGGGSGGGGSGGGGSEVQLVESGGGLVQPGGSLRLSCVASGDVHKINFLGWYRQAPGKEREKVAHISIGDQTDYADSAKGRFTISRDESKNMVYLQMNSLKPEDTAVYFCRAFSRIYPYDYWGQGTLVTVSS
# notes: Multispecific Nanobody polypeptide expressed in Pichia; also called A0110056A10-35GS-cAbLys3(D1E,Q5V,A6E,Q108L)-35GS-T0170056G05-FLAG3-HIS6; not shown: C-terminal FLAG3-HIS6 tag
# B7: T017000134 (bispecific antibody)
# chain: VQLVESGGGLVQAGGSLRLSCAASGITSKINDMGWYRQTPGNYREWVASITATGTTNYRDSVKGRFTISRDNAKSTVYLQMNSLKPEDTTVYYCNTFPPISNFWGQGTLVTVSSGGGGSGGGGSGGGGSGGGGSGGGGSGGGGSGGGGSEVQLVESGGGLVQPGGSLRLSCVASGDVHKINFLGWYRQAPGKEREKVAHISIGDQTDYADSAKGRFTISRDESKNMVYLQMNSLKPEDTAVYFCRAFSRIYPYDYWGQGTLVTVSSGGGGSGGGGSGGGGSGGGGSGGGGSGGGGSGGGGSEVQLVESGGGLVQAGGPLRLSCAASGRTFSSYVMGWFRQAPGKEREFVAAIYWSNGKTQYTDSVKGRFTISGDNAKNTVYLQMNSLNPEDTAVYYCVADKDETGFRTLPIAYDYWGQGTLVTVSSA
# Legend:
# [1] = biological target: T1, human CD123 expressed on cells (human, UniProt P26951 19-378); test: cell-based or functional assay
# [2] = biological target: cynomolgus TCR/CD3 expressed on cells (cynomolgus); test: cell-based or functional assay
# [3] = biological target: T2, recombinant human CD123 protein (R&D Systems, 301-R3/CF) (human, UniProt P26951 19-305); test: SPR (ProteOn XPR36), CD123 immobilized
# T2 construct: Bought recombinant His-tagged extracellular domain of human CD123; also called recombinant CD123; in house biotinylated-CD123 recombinant protein; not shown: His tag of the bought protein
# T2 sequence: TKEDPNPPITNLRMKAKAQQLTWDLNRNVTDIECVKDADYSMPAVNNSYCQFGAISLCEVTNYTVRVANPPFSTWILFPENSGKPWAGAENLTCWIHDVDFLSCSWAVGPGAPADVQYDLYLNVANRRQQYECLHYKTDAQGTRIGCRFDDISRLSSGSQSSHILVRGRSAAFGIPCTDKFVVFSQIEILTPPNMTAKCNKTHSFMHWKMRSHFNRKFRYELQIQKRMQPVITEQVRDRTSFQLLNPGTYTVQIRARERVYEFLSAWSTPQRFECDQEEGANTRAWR
# [4] = biological target: T1, human CD123 expressed on cells; test: cell-based or functional assay; remark: listed apart in the source
# human CD123 = human CD123 (human, UniProt P26951 19-378); test: cell-based or functional assay
# [5] = biological target: T2, recombinant human CD123 protein (R&D …); test: SPR (ProteOn XPR36), CD123 immobilized; values only indicative (incomplete regeneration)
# [6] = biological target: T3, cynomolgus CD123 expressed on HEK Flp-In cells (cynomolgus); test: flow cytometry competition, HEK Flp-In cyCD123 cells, competitor A0110056A10-Alexa647 (0.9 nM)
# T3 construct: EHH61867.1; also called cyCD123; cyno CD123
# T3 chain: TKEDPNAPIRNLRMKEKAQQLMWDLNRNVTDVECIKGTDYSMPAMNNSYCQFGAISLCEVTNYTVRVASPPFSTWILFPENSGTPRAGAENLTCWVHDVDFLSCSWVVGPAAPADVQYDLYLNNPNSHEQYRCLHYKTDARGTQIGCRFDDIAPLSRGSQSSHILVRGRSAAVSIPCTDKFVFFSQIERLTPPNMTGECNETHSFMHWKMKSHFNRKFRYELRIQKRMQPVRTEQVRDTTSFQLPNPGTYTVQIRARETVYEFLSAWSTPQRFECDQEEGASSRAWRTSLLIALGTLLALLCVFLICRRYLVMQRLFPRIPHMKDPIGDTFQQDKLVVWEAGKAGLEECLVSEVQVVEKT
# [7] = biological target: T1, human CD123 expressed on cells; test: flow cytometry competition, CHO Flp-In huCD123 cells, competitor A0110056A10-Alexa647 (0.9 nM)
# [8] = biological target: T1, human CD123 expressed on cells; test: flow cytometry competition, MOLM-13 cells, competitor A0110056A10-Alexa647 (0.4 nM)
# [9] = biological target: T1, human CD123 expressed on cells; test: cell-based or functional assay; remark: listed apart in the source
binder,measurement,setting,value
B1,"% lysis, killing of MOLM-13 cells by non-activated human T cells, E:T ratio 2:1",[1],10%
same,"% lysis, killing of MOLM-13 cells by non-activated human T cells, E:T ratio 8:1",[1],12%
same,"% lysis, killing of MOLM-13 cells by pre-activated human T cells, E:T ratio 1:2",[1],18%
same,"% lysis, killing of MOLM-13 cells by pre-activated human T cells, E:T ratio 2:1",[1],31%
same,"% lysis, killing of MOLM-13 cells by pre-activated human T cells, E:T ratio 8:1",[1],43%
same,"EC50 (M), killing of MOLM-13 cells by non-activated human T cells, E:T ratio 2:1",[1],1.9e-09 M
same,"EC50 (M), killing of MOLM-13 cells by non-activated human T cells, E:T ratio 8:1",[1],1.4e-09 M
same,"EC50 (M), killing of MOLM-13 cells by pre-activated human T cells, E:T ratio 1:2",[1],1e-09 M
same,"EC50 (M), killing of MOLM-13 cells by pre-activated human T cells, E:T ratio 2:1",[1],6.8e-10 M
same,"EC50 (M), killing of MOLM-13 cells by pre-activated human T cells, E:T ratio 8:1",[1],2.4e-10 M
same,"% lysis, redirected cyno T cell mediated killing of KG1a cells, flow cytometry",[2],7%
same,"EC50 (M), redirected cyno T cell mediated killing of KG1a cells, flow cytometry",[2],1.9e-10 M
same,Kd,[3],2.3 nM
same,koff,[3],0.00019 s⁻¹
same,kon,[3],84000 M⁻¹ s⁻¹
same,"% lysis, redirected human T cell mediated killing of KG1a cells, flow cytometry, E:T 10:1",[4],7%
same,"EC50 (M), redirected human T cell mediated killing of KG1a cells, flow cytometry, E:T 10:1",[4],2.4e-10 M
B2,Kd,[3],160 nM
same,koff,[3],0.0032 s⁻¹
same,kon,[3],20000 M⁻¹ s⁻¹
B3,"% lysis, redirected cynomolgus T cell mediated killing of KG1a cells, flow cytometry, E:T 10:1",human CD123,32%
same,"% lysis, redirected human T cell mediated killing of KG1a cells, flow cytometry, E:T 10:1",human CD123,55%
same,"EC50 (M), redirected cynomolgus T cell mediated killing of KG1a cells, flow cytometry, E:T 10:1",human CD123,2.8e-10 M
same,"EC50 (M), redirected human T cell mediated killing of KG1a cells, flow cytometry, E:T 10:1",human CD123,3.1e-10 M
B4,Kd,[5],170 nM
same,koff,[5],0.0025 s⁻¹
same,kon,[5],15000 M⁻¹ s⁻¹
B5,IC50,[6],110 nM
same,IC50,[7],23 nM
same,Kd,[3],22 nM
same,koff,[3],0.00086 s⁻¹
same,kon,[3],40000 M⁻¹ s⁻¹
same,IC50,[8],26 nM
B6,Kd,[5],1.5 nM
same,koff,[5],0.00051 s⁻¹
same,kon,[5],330000 M⁻¹ s⁻¹
B7,"% lysis, redirected human T cell mediated killing of MOLM-13 cells, flow cytometry, E:T 10:1",[9],9%
same,"EC50 (M), redirected human T cell mediated killing of MOLM-13 cells, flow cytometry, E:T 10:1",[9],3e-10 M
